The labels stand for the following.
B1: C-terminal RRM domain of Pla1 (Pla1RRM, residues 352-566), purified [S. pombe] / Red1 residues 288-345 (Pla1 interaction region), purified [S. pombe] (parent)
chain 1: ISLPLLKQDDWLSSSKPFGSSTPNVVIEFDSDDDGDDFSNSKIEQSNLEKPPSNSENG
chain 2: DFFHRYKHYLTITAAAKTAEAQLKWAGLVESKLRHLVTRLELVDAIALAHPFNKGFDKVYNCSSEEEAQQVASGVTLEVAYESTDHEKLANDTVNEEKADNTESKADGSENGEKQIFPVYTTTCYIGLELEKKKGHPIKRLDISWPTQEFYELCKKWDKYDDTLMNVFIKNTKNTALPDEVFEPGEERPKATKKRSTADTAHSTEQLKRQKVSTA

In general, Kd refers to the concentration at which binding is half-saturated.

The variants in one assay derive from B1. Nature of the assay: ITC. As to conditions: with Red1 residues 288-345 (Pla1 interaction region).
Turning to chain 2 DFFHRYKHYLTITAAAKTAEAQLKWAGLVESKLRHLVTRLELVDAIALAHPFNKGFDKVYNCSSEEEAQQVASGVTLEVAYESTDHEKLANDTVNEEKADNTESKADGSENGEKQIFPVYTTTCYIGLELEKKKGHPIKRLDISWPTQEFYELCKKWDKYDDTLMNVFIKNTKNTALPDEVFEPGEERPKATKKRSTADTAHSTEQLEEQEVSTA [chain 2 K208E R209E K211E], the Kd stood at 2.8 µM.
The same measure, in the same setting: the same measure for chain 2 DFFHRYKHYLTITAAAETAEAQLKWAGLVESKLRHLVTRLELVDAIALAHPFNKGFDKVYNCSSEEEAQQVASGVTLEVAYESTDHEKLANDTVNEEKADNTESKADGSENGEKQIFPVYTTTCYIGLELEKKKGHPIKRLDISWPTQEFYELCKKWDKYDDTLMNVFIKNTKNTALPDEVFEPGEERPKATKKRSTADTAHSTEQLKRQKVSTA [chain 2 K17E]: 17.8 µM.

Staying with this assay, now noted: with C-terminal RRM domain of Pla1 (Pla1RRM, residues 352-566).
Regarding chain 1 ISLPLLKQDDWLSSSKPFGSSTPNVRIEFDSDDDGDDFSNSKIEQSNLEKPPSNSENG [chain 1 V26R], the Kd came out at 17.9 µM.

The values above are taken from article PMC9922296, “Mechanistic insights into RNA surveillance by the canonical poly(A) polymerase Pla1 of the MTREC complex” (Nature Communications, 2023).
